Source: US20170210824A1

Target: 3-pTza peptide library (Ac-Cys.G/A.G/A.G/A.G/A.X.G/A.G/A.G/A.G/A-CONH2, X = 3-pTza)
Assay: 3-pTza peptide dot blot array

B1: 3-pHis mAb SC44-8 (antibody, V domains shown)
VH: ESGRGLVQPGGSLTLTCTASGFSIDSYGFSWVRQAPGKGLEHIGYLTAGGRAFYASWAKSRSTITRNTNENTVTLKMTSLTAADTATYFCAKLGSGNPVAIWGPGTLVTVSS
VL: DPVMTPTPSFTSAAVGGTVTINCQSSQSVWRNKNLAWYQQKPGQPPKRLIYAIATLDSGVPSRFSGSGSGTQFTLTISDVQCDDAATYYCVGHYGSENDAYYAFGGGTEVVVKG
lowest amount detected: 800 pg
